Experimental data as given in the supplement of paper PMC12042874.
± gives the uncertainty stated by the source.

Experiment: amyloid nucleation score (Sup35N fusion, yeast selection) (log enrichment); library NNK1; higher = more nucleation; inactive = no reads after selection
How it was run: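 In psi-negative yeast, Sup35N fusions carrying peptides of 20 random codons were induced with 100 μM copper sulfate for 24 hours. The cells then grew 7 days at 30°C on medium lacking adenine and uracil, and plasmid inserts from input and output were Illumina-sequenced, excluding sequences with under 100 input reads. Nucleation score is the DiMSum log enrichment of output over input reads, centred on the mode score of non-aggregating sequences.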

| Substance | amyloid nucleation score |
| --- | --- |
| IGQFMVDWYNIGGREPVPGS | 0.301 ± 0.78 |
| IGRRDWH | 0.925 ± 0.49 |
| IGWCWVIMQGNIEQVDRG | 4.72 ± 0.074 |
| IGYLDMGNRFGYLLARC | -1.1 ± 0.62 |
| IGYLDYLCCGISLFFQETEA | 0.427 ± 0.48 |
| IHESTWSVKGSWVHQRGPGP | 2.56 ± 0.21 |
| IHLGCCMLFRRLGECRLVV | -0.409 ± 0.29 |
| IHLNQ | 1.15 ± 0.55 |
| IHYIPAFYRAKSILLFVYAC | -0.241 ± 0.5 |
| IIFGCCVF | 7.982 ± 0.062 |
| IIFKSVNYLLPIVVKNMCGT | 1.16 ± 0.13 |
| IIMVYSRSLLMLKLSLVVPC | inactive |
| IINKSLWLPRNLAFGNY | 0.117 ± 0.47 |
| IIRGVTAGALFYYFSVILLR | -0.214 ± 0.77 |
| IIRLVQNRSIMSFAMGISWV | 2.4 ± 0.33 |
| IISKGSWSKSTDFGGLM | -1.83 ± 1.7 |
| IISRLCLQLPATRT | 1.21 ± 0.67 |
| IISTWSYGSES | 2.43 ± 0.14 |
| IIWRDNNTPYD | 1.96 ± 0.7 |
| IKATGTRPRIHRYFGNC | -0.173 ± 0.58 |
| IKFRCYLCG | 0.44 ± 0.9 |
| IKILLNWHV | -0.628 ± 1.7 |

| Substance | amyloid nucleation score |
| --- | --- |
| IKLNTEALESYLLVFRMKRW | -0.605 ± 0.46 |
| IKVSIIGWGYILAPGGESNV | -1.28 ± 0.69 |
| ILAIKWTSVWCMESDFPIEV | -0.402 ± 0.58 |
| ILDMMAKV | 1.56 ± 0.76 |
| ILELGGCLVYYRGN | 0.087 ± 0.69 |
| ILESRVPCCLKRGLNKEIGL | 0.672 ± 0.46 |
| ILFDLQPKFVRR | 0.693 ± 0.48 |
| ILGTIYDIMQNGDIHRFLAY | -0.834 ± 1.2 |
| ILHFWLTYK | 4.63 ± 0.1 |
| ILHLLRFNDIAFVKRLSAVL | -0.067 ± 0.17 |
| ILICKLHRRVIRGWNFRSDR | 0.086 ± 0.48 |
| ILKSFLD | -0.071 ± 0.42 |
| ILMFWSPVGSRLTLSTSKLQ | -0.234 ± 1.6 |
| ILMILNLRTTSPWDWNWVSV | 0.296 ± 0.83 |
| ILNTTHCHKHKKTCEHSACD | -0.883 ± 0.48 |
| ILRAFWESGHTGGVWATVSS | -1.19 ± 0.77 |
| ILREQNSLDTSRFYRGRSLV | 0.187 ± 0.65 |
| ILRQIDIDATYVIFLEMSRL | 5.854 ± 0.047 |
| ILSEPNELTGACLAS | 0.29 ± 0.78 |
| ILSPRVPINRICAVEQRRGI | -0.952 ± 0.83 |
| ILVTLHMTCLRRSRNTLSFY | -0.45 ± 1.5 |
| ILWLVMWVWTSRFVRCRRHS | -1.94 ± 2.4 |

| Substance | amyloid nucleation score |
| --- | --- |
| ILYNA | -0.166 ± 1.2 |
| ILYVVWFYVLLRWVRVLLLR | 0.884 ± 0.49 |
| IMAGP | -0.624 ± 0.58 |
| IMDSSMGGSSKMYKVVANDL | 0.311 ± 0.64 |
| IMKRCCGESMMPDAGWSGSA | -0.401 ± 1 |
| IMMSYRFHFNNSERIRGCVR | -0.321 ± 0.26 |
| INAQAVIGNFRGRYSVYNVH | 4.23 ± 0.065 |
| INDCYFMWGNLFCYVCVMLL | 1.66 ± 0.46 |
| INDSRFVAYTCLRVTEKYGL | 0.855 ± 0.22 |
| INFQNDELWVLETIGFHTYP | -0.256 ± 0.49 |
| INIAMVMPLDGKLIQIDDTC | 0.177 ± 0.31 |
| INRSSVESLVLTDLKHWTSG | 0.504 ± 0.49 |
| INTSYIEEHYELVGFVHWNV | -0.449 ± 0.79 |
| INWRN | -0.471 ± 0.34 |
| IPGTPMT | inactive |
| IPKVIGWFTVVTTGVVVDIS | 1.27 ± 0.7 |
| IQRKSITTWSPH | 3.43 ± 0.2 |
| IQSRDGVSYKQDVWTLGCVL | 0.658 ± 0.55 |
| IRANLEDVLHIFIPVEGHSR | -0.655 ± 1.1 |
| IRCLSMIWVTKDVLIIWRSQ | 0.159 ± 0.93 |
| IRGLRVLHSVFLALLVCKNL | -0.136 ± 0.59 |
| IRGNVKETVIFFKTRFAFCW | 0.147 ± 0.73 |

| Substance | amyloid nucleation score |
| --- | --- |
| IRPNMRAVKIEVQDVGSQCV | 0.428 ± 0.6 |
| IRQQKGFGCNAFWMVLG | 0.83 ± 0.78 |
| IRRATF | 0.421 ± 0.84 |
| IRRYPAFFFNVYPSTSMFCS | -1.21 ± 0.88 |
| IRSLLYYLFGFLMFWVIRIW | 0.226 ± 0.66 |
| IRTCLVSIVATRCKVGVESP | 0.403 ± 0.34 |
| IRWRSSFVQSMMVTHQHQSF | 1.85 ± 0.16 |
| IRYQFVWSMSLCGLEMHWSS | 2.55 ± 0.21 |
| ISCGCMRVLTRDNLFLKFRF | 0.12 ± 0.58 |
| ISDFAYWQILCRVSDIFKVQ | 2.31 ± 0.13 |
| ISGFGVIVWGVVSWVWYGTN | -0.268 ± 0.7 |
| ISHLDG | -1.04 ± 2.4 |
| ISHSIAVRNNLLLFGPCQNR | 2.12 ± 0.12 |
| ISINHVTCRLVFETGKWRWG | 3.45 ± 0.086 |
| ISLCCTSTYLTVSYGTDRS | 6.487 ± 0.061 |
| ISLLGIWV | 0.939 ± 0.31 |
| ISLRGRCITSKGSSYYAIKY | inactive |
| ISLSSGLALKPS | 1.41 ± 0.48 |
| ISLWLFVFCCHIISISKWLL | inactive |
| ISMGWWIDYGPY | -0.724 ± 0.81 |
